Measurements taken from US20100317837A1.

Tests used:
[1] = molecular target: Env 89.6 on 293 cells (HIV-1 isolate 89.6, clade B); test: cell-based or functional assay
[2] = molecular target: Env BR025.9 on 293 cells (HIV-1 isolate BR025.9, clade C); test: cell-based or functional assay
[3] = molecular target: Env BR029.2 on 293 cells (HIV-1 isolate BR029.2, clade F); test: cell-based or functional assay
[4] = molecular target: Env HT593.1 on 293 cells (HIV-1 isolate HT593.1, clade B); test: cell-based or functional assay
[5] = molecular target: Env NL4-3 on 293 cells (HIV-1 NL4-3, clade B); test: cell-based or functional assay
[6] = molecular target: Env RW020.5 on 293 cells (HIV-1 isolate RW020.5, clade A); test: cell-based or functional assay
[7] = molecular target: Env TH022.4 on 293 cells (HIV-1 isolate TH022.4, clade EA); test: cell-based or functional assay
[8] = molecular target: Env UG037.8 on 293 cells (HIV-1 isolate UG037.8, clade A); test: cell-based or functional assay
[9] = molecular target: Env UG975.10 on 293 cells (HIV-1 isolate UG975.10, clade G); test: cell-based or functional assay
[10] = molecular target: Env US005.11 on 293 cells (HIV-1 isolate US005.11, clade B); test: cell-based or functional assay
[11] = molecular target: Env US715.6 on 293 cells (HIV-1 isolate US715.6, clade B); test: cell-based or functional assay
[12] = molecular target: Env clone GX-C44 on pseudotype virus (HIV-1 isolate GX-C44, Clade C); test: cell-based or functional assay
[13] = molecular target: Env clone GX-E14 on pseudotype virus (HIV-1 isolate GX-E14, Clade E); test: cell-based or functional assay
[14] = molecular target: Env clone MN-TCLA on pseudotype virus (HIV-1 isolate MN-TCLA) (UniProt P05877); test: cell-based or functional assay
[15] = molecular target: Env clone R2 on pseudotype virus (HIV-1 isolate R2, Clade B); test: cell-based or functional assay
[16] = molecular target: Env clone TH966 on pseudotype virus (HIV-1 isolate TH966); test: cell-based or functional assay
[17] = molecular target: Env clone VI1273 on pseudotype virus (HIV-1 isolate VI1273); test: cell-based or functional assay
[18] = molecular target: Env clone VI1399 on pseudotype virus (HIV-1 isolate VI1399); test: cell-based or functional assay
[19] = molecular target: Env clone Z2Z6 on pseudotype virus (HIV-1 isolate Z2Z6, Clade D); test: cell-based or functional assay
[20] = molecular target: gp120 89.6 (HIV-1 isolate 89.6); test: ELISA, antigen coated on plate, soluble Fab titrated, Langmuir fit
[21] = molecular target: gp120 JR-FL (HIV-1 isolate JR-FL); test: as above
[22] = molecular target: sCD4-gp120 89.6 complex (HIV-1 isolate 89.6) (UniProt P01730); test: as above
[23] = molecular target: Env clone 92RW020.5 on pseudotype virus (HIV-1 isolate 92RW020.5, Clade A); test: cell-based or functional assay
[24] = molecular target: Env clone P37 on pseudotype virus (HIV-1 isolate P37); test: cell-based or functional assay
[25] = molecular target: Env clone V5 on pseudotype virus (HIV-1 isolate V5); test: cell-based or functional assay
[26] = molecular target: Env clone VI14004 on pseudotype virus (HIV-1 isolate VI14004, Clade F); test: cell-based or functional assay
[27] = molecular target: gp120 IIIB (HIV-1 isolate IIIB) (UniProt P04578); test: ELISA, antigen coated on plate, soluble Fab titrated, Langmuir fit
[28] = molecular target: gp140 89.6 (HIV-1 isolate 89.6); test: ELISA, soluble Fab titrated on Env (direct or D7324 capture format not specified)
[29] = molecular target: gp120 IIIB (HIV-1 isolate IIIB) (UniProt P04578); test: ELISA, soluble Fab titrated on Env (direct or D7324 capture format not specified); IIIB* is gp120

Chain of UniProt P05877 (P05877 32-856 limits assumed): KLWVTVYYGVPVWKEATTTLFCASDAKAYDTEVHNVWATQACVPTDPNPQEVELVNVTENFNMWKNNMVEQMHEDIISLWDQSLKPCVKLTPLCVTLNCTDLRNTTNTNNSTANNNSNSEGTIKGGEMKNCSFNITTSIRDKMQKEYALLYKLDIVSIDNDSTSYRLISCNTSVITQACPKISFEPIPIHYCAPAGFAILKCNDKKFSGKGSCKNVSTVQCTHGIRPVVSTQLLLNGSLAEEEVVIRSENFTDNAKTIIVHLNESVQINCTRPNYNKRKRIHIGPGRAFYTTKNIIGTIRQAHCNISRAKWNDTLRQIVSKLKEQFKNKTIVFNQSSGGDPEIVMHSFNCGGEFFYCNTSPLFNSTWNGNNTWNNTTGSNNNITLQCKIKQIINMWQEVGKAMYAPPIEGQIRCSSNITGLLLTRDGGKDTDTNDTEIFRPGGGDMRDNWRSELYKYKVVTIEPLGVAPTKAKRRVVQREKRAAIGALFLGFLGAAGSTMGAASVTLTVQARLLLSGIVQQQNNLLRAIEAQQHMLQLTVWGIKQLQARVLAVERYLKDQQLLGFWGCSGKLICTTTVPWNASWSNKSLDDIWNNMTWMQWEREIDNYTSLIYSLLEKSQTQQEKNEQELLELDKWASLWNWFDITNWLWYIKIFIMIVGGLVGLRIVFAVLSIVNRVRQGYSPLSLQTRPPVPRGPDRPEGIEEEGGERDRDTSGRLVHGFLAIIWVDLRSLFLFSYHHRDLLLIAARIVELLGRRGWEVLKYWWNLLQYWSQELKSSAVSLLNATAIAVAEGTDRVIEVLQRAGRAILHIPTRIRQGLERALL

Substance	% of fusion inhibition, cell-cell fusion assay, Fab at 50 µg/ml [1] [%]	% of fusion inhibition, cell-cell fusion assay, Fab at 50 µg/ml [2] [%]	% of fusion inhibition, cell-cell fusion assay, Fab at 50 µg/ml [3] [%]	% of fusion inhibition, cell-cell fusion assay, Fab at 50 µg/ml [4] [%]	% of fusion inhibition, cell-cell fusion assay, Fab at 50 µg/ml [5] [%]	% of fusion inhibition, cell-cell fusion assay, Fab at 50 µg/ml [6] [%]	% of fusion inhibition, cell-cell fusion assay, Fab at 50 µg/ml [7] [%]	% of fusion inhibition, cell-cell fusion assay, Fab at 50 µg/ml [8] [%]	% of fusion inhibition, cell-cell fusion assay, Fab at 50 µg/ml [9] [%]	% of fusion inhibition, cell-cell fusion assay, Fab at 50 µg/ml [10] [%]	% of fusion inhibition, cell-cell fusion assay, Fab at 50 µg/ml [11] [%]	Concentration of Fab at the 50% neutralization endpoint, pseudovirus assay [12] [µg/mL]	Concentration of Fab at the 50% neutralization endpoint, pseudovirus assay [13] [µg/mL]	Concentration of Fab at the 50% neutralization endpoint, pseudovirus assay [14] [µg/mL]	Concentration of Fab at the 50% neutralization endpoint, pseudovirus assay [15] [µg/mL]	Concentration of Fab at the 50% neutralization endpoint, pseudovirus assay [16] [µg/mL]	Concentration of Fab at the 50% neutralization endpoint, pseudovirus assay [17] [µg/mL]	Concentration of Fab at the 50% neutralization endpoint, pseudovirus assay [18] [µg/mL]	Concentration of Fab at the 50% neutralization endpoint, pseudovirus assay [19] [µg/mL]	Kd [20] [pM]	also measured
Fab X5	93	71	36	27	83	45	43	34	19	72	28										
Fab m14	100	71	71	78	96	31	100	100	22	95	35	8.8	100	2.24	2.24	> 100	3.1	> 100	50	5400	Kd [21]: 900 pM; Kd [22]: 7300 pM
Fab m18	100	86	86	39	92	25	93	34	56	93	97	> 25	> 100	< 1.6	1.6	> 100	25	> 100	25	1000	Concentration of Fab at the 50% neutralization endpoint, pseudovirus assay [23]: 3 µg/mL; Concentration of Fab at the 50% neutralization endpoint, pseudovirus assay [24]: 100 µg/mL; Concentration of Fab at the 50% neutralization endpoint, pseudovirus assay [25]: < 2 µg/mL; Concentration of Fab at the 50% neutralization endpoint, pseudovirus assay [26]: < 2 µg/mL; Kd [27]: 80 pM; Kd [21]: 900 pM; Kd [22]: 900 pM; EC50 [28]: 1170 pM; EC50 [29]: 480 pM
